According to PMC6037669, “Optimization of a MT1-MMP-targeting Peptide and Its Application in Near-infrared Fluorescence Tumor Imaging” (Scientific Reports, 2018):
Ends that are not written are not given here. Peptide text beside a SMILES is read from it. * marks the point of attachment. X1 = CC[N+]1=C(C=CC=CC=C2N(CCCCCC(=O)*)c3ccc4c(S(=O)(=O)O)cc(S(=O)(=O)O)cc4c3C2(C)C)C(C)(C)c2c1ccc1c(S(=O)(=O)O)cc(S(=O)(=O)[O-])cc21

How the values were obtained:
MT1-MMP [1] = test: AFM force curve measurement, peptide on tip against immobilized MT1-MMP; assay type: binding, human; settings: 25 °C; for Binding force (peak position of force histogram): peptide on AFM tip via NHS-PEG18-aldehyde, MT1-MMP on APTES mica, PBS, 300 force curves, Gaussian fit
Protocol: (§1) The MT1-MMP catalytic domain (20 kDa) was expressed in Escherichia coli (E. coli) as inclusion bodies. The activated form was produced through refold method. The recombinant human MT1-MMP catalytic domain was produced by E. coli BL21 that carried expression plasmids. The bacteria were grown to an optical density of 0.4 at 37 °C prior to induction. The overexpression of the protein of interest was induced by adding […] to a final concentration of 0.5 mM. Cultivation was proceeded for 4 h before the bacteria were broken by an ultrasonic wave. The inclusion bodies (proMT1-MMP) were solubilized and purified through his-tag affinity chromatography (General Electric, USA), as well as refolded by using dialysis bags to gradually reduce high denaturant concentrations in this process. The refolding buffer included 50 mM HEPES, 10 mM CaCl2, 200 mM NaCl, 1 mM phenylmethylsulfonyl fluoride, 20 μM ZnCl2, 0.01% Brij-35, 5% Glycerol, 100 μg/ml DNase, at a pH 7.5.
The surface layer of the mica was stripped to expose the silanol group-coated surface. Then, the mica was treated with 3-aminopropyltriethoxysilane (APTES, vapor) for 1.5 h at room temperature and dried in vacuum. To immobilize the protein or the peptide, the activated mica surface was immerged into MT1-160p or MT1-MMP solution (300 µg/mL in PBS) for 15 min, rinsed and kept in PBS buffer.
AFM cantilever tips (MSCT) were purchased from Veeco (CA). The polypeptides were covalently immobilized on the tips by using chemical reactions as previously described. […]
The force curves were measured by using a PicoPSM 5500 instrument (Agilent Technologies, MA). […] The interaction force were detected at different points on the substrate. Over 1,000 force–distance cycles were collected, and a total of 300 force curves were recorded at different positions on the substrate. The average force values were summarized and calculated in the form of histograms and were expressed as a probability (%), which was obtained by dividing each count number by the total number of measured force curves.

[2] = test system: MDA-MB-435 tumors (MT1-MMP); test: Whole-body small animal near-infrared fluorescence imaging
Protocol: (§2) All of the animal experiments were conducted in accordance with the principles and procedures outlined in the ethics committee of Jilin University, and approved by Animal Care and Use Committee (CC/ACUCC) of Xiamen University. Subcutaneous sites of athymic nude mice (BALB/c, 6 weeks old, female, 19–21 g) were injected with a suspension of 1 × 10^7 breast carcinoma MDA-MB-435 cells in PBS (100 μL). Tumor growth was assessed with caliper measurements every 2 days, and tumor size was determined using the formula: V = a^*(b^2)/2, where a is the maximum length and b is the maximum width of each tumor in mm respectively. The tumor-bearing mice (n = 5/group) were subjected to optical imaging experiments once the tumor volume (in the right front leg region) reached average size of 200 mm^3 (Error less than 18 mm^3), mice were randomly allocated into three groups: Cy5.5-MT1-AF7p-H4R, Cy5.5-MT1-AF7p-H4R-Block or Cy5.5-MT1-AF7p were injected via their tail vein with […]. Fluorescent images and analysis were performed by using an IVIS Lumina II imaging system (Caliper Life Sciences, MA, USA; Excitation Filter: 630 nm, Emission Filter: 700 nm) at different time point post-injection (1, 2, 4, 6, 12, and 24 h). During injection and image acquiring process, mice were anesthetized with 2.5% isoflurane in oxygen at a flow of 1.5 L/min. Images were normalized to the same scale and analyzed. For semi-quantitative comparison, the regions of interest (ROI) were drawn over the tissues of interest, and the scaled average signal (photons cm^−2 s^−1) for each area was measured. Fluorescent signals from ROI were further corrected by the mice body weights. Results were presented as the mean ± SD for a group of five animals.

[3] = test system: MDA-MB-435 tumors (MT1-MMP); settings: cited from earlier work
Protocol: Among the mutated peptides selected by virtual screening and docking based on the calculated lowest binding energy, the binding affinities were tested by conducting AFM, ITC, and cell fluorescence imaging in vitro. The tumor targeting effects of the optimal peptide were further confirmed by performing an in vivo imaging experiment in a tumor-bearing mice model.

[4] = test system: MDA-MB-435 tumors (MT1-MMP)
Protocol: The mice were injected with 1 nM Cy5.5-peptide to evaluate the distribution of affinity peptides in tumor tissues and major organs. At 4 h post-injection, the tumor-bearing mice were sacrificed, and their major organs, tissues, and tumors were harvested and placed on a black paper for ex vivo imaging (IVIS Lumina II, Caliper Life Sciences, MA, USA). The results were presented as the average scaled signal from the organs and the tumors.

MT1-MMP [5] = test: Isothermal titration calorimetry; parameters: species or system human; settings: 25 °C; 10 mM HEPES, 150 mM NaCl, pH 7.4; 1000 rpm; one-site binding model
Protocol: The ITC experiments were conducted by using a MicroCal ITC-200 system (General Electric, USA) to determine the thermodynamic parameters of the polypeptides. The peptide of interest was dissolved in 10 mM HEPES and 150 mM NaCl solution at pH 7.4. All titrations were performed at 25 °C by injecting aliquots of a 40 μL MT1-160p (1 mM) degassed solution in a syringe into the calorimeter cell containing 200 μL of binding peptides (0.1 mM) degassed solution at a stirring rate of 1000 rpm. The baseline was corrected manually and the heat data were processed by fitting the ITC data into the NanoAnalyze software.

[6] = Whole-body small animal near-infrared fluorescence imaging; settings: athymic nude BALB/c, mouse, in vivo, iv
Protocol: as §2

DQ-gelatin from pig skin = test: Enzymatic activity of recombinant MT1-MMP; assay type: biochemical; settings: refolded recombinant catalytic domain; unit not given
Protocol: as §1, with “The refolding buffer included 50 mM HEPES, 10 mM CaCl2, 200 mM NaCl, 1 mM phenylmethylsulfonyl fluoride, 20 μM ZnCl2, 0.01% Brij-35, 5% Glycerol, 100 μg/ml DNase, at a pH 7.5.” left out
The protein samples from induced lysates, inclusion bodies and renaturation were separated by 15% reducing sodium dodecyl sulfate–polyacrylamide gel electrophoresis (SDS–PAGE) gel followed by Coomassie Brilliant Blue R-250 (CBB) staining. Protein concentration was measured at each step by the BCA Protein Assay Kit (Thermo Scientific, USA) according to manufacturer’s instructions. After renaturation of MT1-MMP, the enzymatic activity of the recombinant MT1-MMP was measured by using fluorescein conjugated substrate, DQ™-gelatin from pig skin (Molecular Probes).

HWKKLHNTKTFL [MT1-AF7p-H4K, MT1-AF7p with histidine 4 mutated to Lys]
Affinity to MT1-MMP by AFM (MT1-MMP [1]; single-molecule recognition force spectroscopy): had a nearly identical binding capacity with MT1-MMP than MT1-AF7P

HWKRLHNTKTFL [MT1-AF7p-H4R, HWKRLHNTKTFL]
Specificity and affinity to MT1-MMP in optical imaging in vivo ([2]; compared with MT1-AF7p): higher specificity and affinity to the receptor (MT1-MMP) in optical imaging in vivo | Tumor imaging effect vs MT1-AF7p ([2]; i.v. tail vein, 10 μM (1 nM in 100 μL PBS), Cy5.5-labeled, p ≤ 0.01, n = 5/group): better than MT1-AF7p (p ≤ 0.01) | Fluorescence intensity in tumor site vs MT1-AF7p ([2]; i.v. tail vein, all time points from 2 h to 24 h, Cy5.5-labeled, n = 5/group): considerably stronger than that of MT1-AF7p at all the time points from 2 h to 24 h

Cy5.5 [reference compound]
Tumor accumulation of free dye ([3]; within 48 h post-injection): did not accumulate in the tumor site within 48 h post-injection

CC[N+]1=C(C=CC=CC=C2N(CCCCCC(=O)N[C@@H](Cc3c[nH]cn3)C(=O)N[C@@H](Cc3c[nH]c4ccccc34)C(=O)N[C@@H](CCCCN)C(=O)N[C@@H](CCCNC(=N)N)C(=O)N[C@@H](CC(C)C)C(=O)N[C@@H](Cc3c[nH]cn3)C(=O)N[C@@H](CC(N)=O)C(=O)N[C@H](C(=O)N[C@@H](CCCCN)C(=O)N[C@H](C(=O)N[C@@H](Cc3ccccc3)C(=O)N[C@@H](CC(C)C)C(=O)O)[C@@H](C)O)[C@@H](C)O)c3ccc4c(S(=O)(=O)O)cc(S(=O)(=O)O)cc4c3C2(C)C)C(C)(C)c2c1ccc1c(S(=O)(=O)O)cc(S(=O)(=O)[O-])cc21 [Cy5.5-MT1-AF7p-H4R] (X1-HWKRLHNTKTFL-OH; C-terminus assumed)
Clearance route ([4]; 4 h post-injection, ex vivo quantification): prominent renal clearance | Tumor fluorescent signal ex vivo ([4]; 4 h post-injection, i.v. 1 nM Cy5.5-peptide, average scaled signal): 8.04 × 10^7 | Tumor fluorescent signal relative to MT1-AF7p ([4]; 4 h post-injection, 8.04 × 10^7 vs. 2.51 × 10^7): 3.2 times | Fluorescent signals in blocking group ([4]; ex vivo, blocked with excess free MT1-AF7p-H4R): very few fluorescent signals were detected in the blocking group | Binding constant (Ka) (MT1-MMP [5]): 175000 M⁻¹ | Tumor signal after blocking with free peptide ([2]; excess free MT1-AF7p-H4R (1 μM) injected 30 min prior): Low Cy5.5-MT1-AF7p-H4R accumulation was observed | Time of maximum tumor accumulation (T/M) ([2]; i.v., MDA-MB-435 tumor): 4 h | tissue to tissue ratio at 1 h [6]: 1.22 ± 0.22 | tissue to tissue ratio at 2 h [6]: 2.77 ± 0.31 | tissue to tissue ratio at 4 h [6]: 4.26 ± 0.56 | Binding force (peak position of force histogram) (MT1-MMP [1]): 260 pN

MT1-MMP: recombinant human MT1-MMP catalytic domain (20 kDa) refolded from E. coli inclusion bodies
Enzymatic activity against DQ-gelatin (DQ-gelatin from pig skin): 9.81 × 10^6

CC[N+]1=C(C=CC=CC=C2N(CCCCCC(=O)N[C@@H](Cc3c[nH]cn3)C(=O)N[C@@H](Cc3c[nH]c4ccccc34)C(=O)N[C@@H](CCCCN)C(=O)N[C@@H](Cc3c[nH]cn3)C(=O)N[C@@H](CC(C)C)C(=O)N[C@@H](Cc3c[nH]cn3)C(=O)N[C@@H](CC(N)=O)C(=O)N[C@H](C(=O)N[C@@H](CCCCN)C(=O)N[C@H](C(=O)N[C@@H](Cc3ccccc3)C(=O)N[C@@H](CC(C)C)C(=O)O)[C@@H](C)O)[C@@H](C)O)c3ccc4c(S(=O)(=O)O)cc(S(=O)(=O)O)cc4c3C2(C)C)C(C)(C)c2c1ccc1c(S(=O)(=O)O)cc(S(=O)(=O)[O-])cc21 [Cy5.5-MT1-AF7p] (X1-HWKHLHNTKTFL-OH; C-terminus assumed)
Tumor accumulation in MDA-MB-435 xenografts ([3]; compared with negative control): significantly higher tumor accumulation | Binding constant (Ka) (MT1-MMP [5]): 107000 M⁻¹ | tissue to tissue ratio at 4 h [6]: 1.98 | Binding force (peak position of force histogram) (MT1-MMP [1]): 150 pN

HWKHLHNTKTFL [MT1-AF7p]
Binding constant (Ka) (MT1-MMP [5]): 107000 M⁻¹
